{"source": "patent US20220315909"}
{"substance": "Recombinant Human u-Plasminogen Activator/Urokinase", "values": [{"measurement": "cleavage ratio (PAR) on peptide array, human uPA 1000 nM", "setting": "SEQ ID NO 17995", "value": "showed higher cleavage ratios than the sequence shown as SEQ ID NO: 3 for both the cleavages by human uPA and human MT-SP1"}, {"measurement": "cleavage ratio (PAR) on peptide array, human uPA 1000 nM", "setting": "SEQ ID NO 17994", "value": "showed higher cleavage ratios than the sequence shown as SEQ ID NO: 3 for both the cleavages by human uPA and human MT-SP1"}, {"measurement": "cleavage ratio (PAR) on peptide array, human uPA 1000 nM", "setting": "SEQ ID NOs: 17202-17993", "value": "showed higher cleavage ratios than the sequence shown as SEQ ID NO: 3 for both the cleavages by human uPA and human MT-SP1"}, {"measurement": "cleavage ratio (PAR) on peptide array, human uPA 1000 nM", "setting": "SEQ ID NO 18000", "value": "showed higher cleavage ratios than the sequence shown as SEQ ID NO: 3 for both the cleavages by human uPA and human MT-SP1"}, {"measurement": "cleavage ratio (PAR) on peptide array, human uPA 1000 nM", "setting": "SEQ ID NO 17998", "value": "showed higher cleavage ratios than the sequence shown as SEQ ID NO: 3 for both the cleavages by human uPA and human MT-SP1"}, {"measurement": "cleavage ratio (PAR) on peptide array, human uPA 1000 nM", "setting": "SEQ ID NO 17996", "value": "showed higher cleavage ratios than the sequence shown as SEQ ID NO: 3 for both the cleavages by human uPA and human MT-SP1"}, {"measurement": "cleavage ratio (PAR) on peptide array, human uPA 1000 nM", "setting": "SEQ ID NO 18002", "value": "showed higher cleavage ratios than the sequence shown as SEQ ID NO: 3 for both the cleavages by human uPA and human MT-SP1"}, {"measurement": "cleavage ratio (PAR) on peptide array, human uPA 1000 nM", "setting": "SEQ ID NOs: 5-17201", "value": "showed higher cleavage ratios than the sequence shown as SEQ ID NO: 2 for both the cleavages by human uPA and human MT-SP1"}, {"measurement": "cleavage ratio (PAR) on peptide array, human uPA 1000 nM", "setting": "SEQ ID NO 18003", "value": "showed higher cleavage ratios than the sequence shown as SEQ ID NO: 3 for both the cleavages by human uPA and human MT-SP1"}, {"measurement": "cleavage ratio (PAR) on peptide array, human uPA 1000 nM", "setting": "SEQ ID NO 17997", "value": "showed higher cleavage ratios than the sequence shown as SEQ ID NO: 3 for both the cleavages by human uPA and human MT-SP1"}, {"measurement": "cleavage ratio (PAR) on peptide array, human uPA 1000 nM", "setting": "SEQ ID NO 18001", "value": "showed higher cleavage ratios than the sequence shown as SEQ ID NO: 3 for both the cleavages by human uPA and human MT-SP1"}, {"measurement": "cleavage ratio (PAR) on peptide array, human uPA 1000 nM", "setting": "SEQ ID NO 17999", "value": "showed higher cleavage ratios than the sequence shown as SEQ ID NO: 3 for both the cleavages by human uPA and human MT-SP1"}]}
{"substance": "Recombinant Mouse u-Plasminogen Activator/Urokinase", "values": [{"measurement": "cleavage ratio (PAR) on peptide array, mouse uPA 1000 nM", "setting": "SEQ ID NO 17995", "value": "also showed higher cleavage ratios for mouse uPA than the sequence shown as SEQ ID NO: 3"}, {"measurement": "cleavage ratio (PAR) on peptide array, mouse uPA 1000 nM", "setting": "SEQ ID NOs: 5-3204", "value": "showed higher cleavage ratios than the sequence shown as SEQ ID NO: 2 for all the cleavages by human uPA, human MT-SP1, and mouse uPA"}, {"measurement": "cleavage ratio (PAR) on peptide array, mouse uPA 1000 nM", "setting": "SEQ ID NO 17994", "value": "also showed higher cleavage ratios for mouse uPA than the sequence shown as SEQ ID NO: 3"}, {"measurement": "cleavage ratio (PAR) on peptide array, mouse uPA 1000 nM", "setting": "SEQ ID NO 17202", "value": "also showed higher cleavage ratios for mouse uPA than the sequence shown as SEQ ID NO: 3"}, {"measurement": "cleavage ratio (PAR) on peptide array, mouse uPA 1000 nM", "setting": "SEQ ID NO 17998", "value": "also showed higher cleavage ratios for mouse uPA than the sequence shown as SEQ ID NO: 3"}, {"measurement": "cleavage ratio (PAR) on peptide array, mouse uPA 1000 nM", "setting": "SEQ ID NO 17996", "value": "also showed higher cleavage ratios for mouse uPA than the sequence shown as SEQ ID NO: 3"}, {"measurement": "cleavage ratio (PAR) on peptide array, mouse uPA 1000 nM", "setting": "SEQ ID NO 17997", "value": "also showed higher cleavage ratios for mouse uPA than the sequence shown as SEQ ID NO: 3"}, {"measurement": "cleavage ratio (PAR) on peptide array, mouse uPA 1000 nM", "setting": "SEQ ID NO 17203", "value": "also showed higher cleavage ratios for mouse uPA than the sequence shown as SEQ ID NO: 3"}, {"measurement": "cleavage ratio (PAR) on peptide array, mouse uPA 1000 nM", "setting": "SEQ ID NO 17999", "value": "also showed higher cleavage ratios for mouse uPA than the sequence shown as SEQ ID NO: 3"}]}
